Measurements as given in PMC6269424.

Tests used:
[1] = phospho-PPARγ western blot of adipose tissue; details: glycan lost; control: HFD-fed Con (OGTflox) mice
[2] = western blot of adipose tissue; details: glycan lost; control: HFD-fed Con (OGTflox) mice

B1: PPARγ2: adipocyte-specific OGT knockout (FKO) (protein)
parent chain: MGETLGDSPVDPEHGAFADALPMSTSQEITMVDTEMPFWPTNFGISSVDLSVMEDHSHSFDIKPFTTVDFSSISAPHYEDIPFTRADPMVADYKYDLKLQEYQSAIKVEPASPPYYSEKTQLYNRPHEEPSNSLMAIECRVCGDKASGFHYGVHACEGCKGFFRRTIRLKLIYDRCDLNCRIHKKSRNKCQYCRFQKCLAVGMSHNAIRFGRMPQAEKEKLLAEISSDIDQLNPESADLRALAKHLYDSYIKSFPLTKAKARAILTGKTTDKSPFVIYDMNSLMMGEDKIKFKHITPLQEQSKEVAIRIFQGCQFRSVEAVQEITEYAKNIPGFINLDLNDQVTLLKYGVHEIIYTMLASLMNKDGVLISEGQGFMTREFLKNLRKPFGDFMEPKFEFAVKFNALELDDSDLAIFIAVIILSGDRPGLLNVKPIEDIQDNLLQALELQLKLNHPESSQLFAKVLQKMTDLRQIVTEHVQLLHVIKKTETDMSLHPLLQEIYKDLY
[1]
  other: Ser112 phosphorylation: increases
[2]
  expression_or_secretion: decreases
